Laboratory results taken from the Human Domainome abundance scans (Beltran et al. 2025).
± gives the uncertainty stated by the source.

B1: Retinoic acid receptor RXR-alpha, residues 132 to 208; numbered along this chain, P19793 (parent)
chain: KHICAICGDRSSGKHYGVYSCEGCKGFFKRTVRKDLTYTCRDNKDCLIDKRQRNRCQYCRYQKCLAMGMKREAVQEE

Variants of: B1
Test: abundance fitness (aPCA) (normalised: wild type 0, dead -1); higher = more abundant; growth selection in yeast, the domain comes from the species named
Conditions: Homo sapiens

C56S and I3K are within error of each other in abundance fitness: -0.293 ± 0.38 for the first, -0.144 ± 0.048 for the second.

Compared with I3E, I3C is higher in abundance fitness: -0.428 ± 0.066 for the first, 0.022 ± 0.037 for the second.

First: G26L
Second: Y16F
The abundance fitness of the first is lower: -0.132 ± 0.027 for the first, 0.06 ± 0.032 for the second.

Y16V and Y16D are within error of each other in abundance fitness: 0.004 ± 0.025 for the first, 0.046 ± 0.035 for the second.

Y16L and R51V are the same in abundance fitness: -0.035 ± 0.024 for the first, -0.035 ± 0.033 for the second.

R51C and R51E are within error of each other in abundance fitness: -0.053 ± 0.052 for the first, -0.005 ± 0.046 for the second.

D42N and M67N are within error of each other in abundance fitness: 0.02 ± 0.11 for the first, -0.006 ± 0.032 for the second.

M67E and M67W are within error of each other in abundance fitness: -0.016 ± 0.036 for the first, -0.055 ± 0.037 for the second.

Compared with C40V, C40E is higher in abundance fitness: -0.737 ± 0.056 for the first, -0.405 ± 0.056 for the second.

K29E and K29D are within error of each other in abundance fitness: 0.028 ± 0.037 for the first, -0.013 ± 0.053 for the second.

K29A and K29M are within error of each other in abundance fitness: 0.05 ± 0.036 for the first, 0.038 ± 0.041 for the second.

Compared with K29L, G17A is lower in abundance fitness: 0.009 ± 0.037 for the first, -0.106 ± 0.03 for the second.

G17F and G17E are within error of each other in abundance fitness: -0.088 ± 0.1 for the first, 0.005 ± 0.037 for the second.

Compared with G17P, S12V is higher in abundance fitness: -0.277 ± 0.052 for the first, 0.018 ± 0.036 for the second.

S12K and S12A are within error of each other in abundance fitness: 0.137 ± 0.056 for the first, 0.044 ± 0.041 for the second.

Y58F and Y58G are within error of each other in abundance fitness: -0.02 ± 0.062 for the first, -0.028 ± 0.036 for the second.

Y58C and V74Q are within error of each other in abundance fitness: -0.066 ± 0.062 for the first, -0.007 ± 0.045 for the second.

V74A and V74Y are within error of each other in abundance fitness: -0.045 ± 0.032 for the first, -0.039 ± 0.031 for the second.

A66Y and A66E are within error of each other in abundance fitness: -0.036 ± 0.036 for the first, 0.033 ± 0.045 for the second.

Y19E and Y19D are within error of each other in abundance fitness: -0.047 ± 0.038 for the first, -0.041 ± 0.038 for the second.

First: Y19A
Second: Y19C
The abundance fitness of the first is higher: -0.036 ± 0.033 for the first, -0.116 ± 0.041 for the second.

S11I and S11G are within error of each other in abundance fitness: -0.113 ± 0.031 for the first, -0.116 ± 0.026 for the second.

S11H and E22N are within error of each other in abundance fitness: -0.019 ± 0.035 for the first, -0.079 ± 0.066 for the second.

Compared with E22V, E22G is higher in abundance fitness: -0.053 ± 0.033 for the first, 0.031 ± 0.028 for the second.

E22P and D49V are within error of each other in abundance fitness: -0.037 ± 0.048 for the first, 0.036 ± 0.044 for the second.

D49Q and D49S are within error of each other in abundance fitness: 0.036 ± 0.076 for the first, -0.037 ± 0.053 for the second.

Going from D49W to D49L, the abundance fitness falls from 0.06 ± 0.049 to -0.102 ± 0.049.

Going from T39G to T39L, the abundance fitness falls from 0.045 ± 0.027 to -0.052 ± 0.033.

Compared with M69W, M69R is lower in abundance fitness: -0.007 ± 0.052 for the first, -0.875 ± 0.079 for the second.

Compared with M69E, M69P is lower in abundance fitness: -0.322 ± 0.079 for the first, -0.856 ± 0.1 for the second.

R71Y and R71E are the same in abundance fitness: 0.006 ± 0.033 for the first, 0.006 ± 0.035 for the second.

C59L and C59P are within error of each other in abundance fitness: -0.911 ± 0.1 for the first, -0.753 ± 0.12 for the second.

First: C59I
Second: H15A
The abundance fitness of the first is lower: -0.977 ± 0.29 for the first, -0.13 ± 0.028 for the second.

H15W and A5N are within error of each other in abundance fitness: -0.078 ± 0.032 for the first, -0.022 ± 0.055 for the second.

Compared with A5W, A5V is lower in abundance fitness: 0.03 ± 0.042 for the first, -0.054 ± 0.033 for the second.

A5H and A5F are within error of each other in abundance fitness: 0.044 ± 0.063 for the first, 0.171 ± 0.065 for the second.

C46Y and C46I are within error of each other in abundance fitness: -0.383 ± 0.086 for the first, -0.436 ± 0.099 for the second.

Going from C46V to T37G, the abundance fitness rises from -0.193 ± 0.036 to 0.047 ± 0.026.

V18P and V18M are within error of each other in abundance fitness: -0.18 ± 0.038 for the first, -0.147 ± 0.083 for the second.

V18E and G68Q are within error of each other in abundance fitness: 0.01 ± 0.04 for the first, -0.054 ± 0.047 for the second.

Compared with G68D, G68I is lower in abundance fitness: -0.06 ± 0.047 for the first, -0.544 ± 0.049 for the second.

First: G68H
Second: Q57R
The abundance fitness of the first is lower: -0.103 ± 0.035 for the first, 0.003 ± 0.031 for the second.

First: C4F
Second: C4H
The abundance fitness of the first is lower: -0.955 ± 0.11 for the first, -0.512 ± 0.073 for the second.

Compared with C4L, C4Q is higher in abundance fitness: -0.999 ± 0.076 for the first, -0.614 ± 0.088 for the second.

L36V and L36N are within error of each other in abundance fitness: 0.009 ± 0.032 for the first, -0.024 ± 0.075 for the second.

Going from I6A to I6H, the abundance fitness falls from -0.145 ± 0.038 to -0.731 ± 0.072.

I6M and I6T are within error of each other in abundance fitness: -0.038 ± 0.039 for the first, -0.064 ± 0.033 for the second.

First: G8M
Second: E76C
The abundance fitness of the first is lower: -0.07 ± 0.041 for the first, 0.023 ± 0.044 for the second.

Going from E76M to E76D, the abundance fitness rises from -0.036 ± 0.042 to 0.05 ± 0.041.

Going from K44D to K44P, the abundance fitness falls from 0.092 ± 0.056 to -0.022 ± 0.054.

K44Y and K44F are within error of each other in abundance fitness: -0.119 ± 0.098 for the first, -0.024 ± 0.073 for the second.

K44A and R41P are within error of each other in abundance fitness: 0.001 ± 0.038 for the first, 0.059 ± 0.029 for the second.

R41D and D45K are within error of each other in abundance fitness: 0.056 ± 0.038 for the first, 0.058 ± 0.047 for the second.

First: D45N
Second: D45M
The abundance fitness of the first is higher: -0.034 ± 0.061 for the first, -0.404 ± 0.19 for the second.

D45Y and D45F are within error of each other in abundance fitness: -0.062 ± 0.063 for the first, -0.104 ± 0.066 for the second.

D45T and L65W are within error of each other in abundance fitness: -0.051 ± 0.051 for the first, -0.108 ± 0.042 for the second.

L65V and T31C are within error of each other in abundance fitness: 0.033 ± 0.032 for the first, -0.005 ± 0.032 for the second.

T31M and Q75N are within error of each other in abundance fitness: 0 ± 0.038 for the first, -0.052 ± 0.037 for the second.

Q75V and Q75R are within error of each other in abundance fitness: 0.013 ± 0.034 for the first, 0.003 ± 0.031 for the second.

Q75D and I48S are within error of each other in abundance fitness: 0.022 ± 0.041 for the first, -0.04 ± 0.041 for the second.

I48N and I48C are within error of each other in abundance fitness: 0.065 ± 0.15 for the first, -0.035 ± 0.057 for the second.

I48A and Y38A are within error of each other in abundance fitness: -0.05 ± 0.041 for the first, -0.061 ± 0.035 for the second.

N43K and N43S are within error of each other in abundance fitness: 0.1 ± 0.052 for the first, 0.019 ± 0.042 for the second.

N43F and G13P are within error of each other in abundance fitness: -0.071 ± 0.068 for the first, -0.118 ± 0.074 for the second.

G13M and G13A are within error of each other in abundance fitness: -0.042 ± 0.052 for the first, 0.02 ± 0.035 for the second.

Going from G13C to G13H, the abundance fitness rises from -0.707 ± 0.16 to 0.025 ± 0.081.

Compared with G23A, G23Y is lower in abundance fitness: -0.082 ± 0.026 for the first, -0.312 ± 0.035 for the second.

G23E and L47T are within error of each other in abundance fitness: -0.039 ± 0.031 for the first, 0.012 ± 0.049 for the second.

L47N and L47P are within error of each other in abundance fitness: -0.098 ± 0.076 for the first, -0.045 ± 0.054 for the second.

L47M and L47K are within error of each other in abundance fitness: -0.048 ± 0.044 for the first, -0.062 ± 0.061 for the second.

Going from D9G to D9C, the abundance fitness falls from -0.166 ± 0.039 to -0.898 ± 0.083.

D9E and F27S are within error of each other in abundance fitness: 0.098 ± 0.055 for the first, 0.004 ± 0.31 for the second.

A73F and A73Y are within error of each other in abundance fitness: -0.01 ± 0.031 for the first, -0.056 ± 0.034 for the second.

Going from A73S to A73K, the abundance fitness falls from 0.004 ± 0.026 to -0.081 ± 0.043.

A73N and A73P are within error of each other in abundance fitness: 0.015 ± 0.036 for the first, 0.011 ± 0.032 for the second.

C24K and C24Y are within error of each other in abundance fitness: -1.15 ± 0.11 for the first, -1.09 ± 0.12 for the second.

First: C24R
Second: C24E
The abundance fitness of the first is lower: -0.958 ± 0.048 for the first, -0.559 ± 0.045 for the second.

First: F28P
Second: F28A
The abundance fitness of the first is lower: -0.906 ± 0.14 for the first, -0.49 ± 0.047 for the second.

Going from F28Y to F28W, the abundance fitness rises from -0.13 ± 0.065 to -0.024 ± 0.036.

First: V32P
Second: V32E
The abundance fitness of the first is lower: -0.298 ± 0.036 for the first, 0.026 ± 0.032 for the second.

R10D and E72M are within error of each other in abundance fitness: -0.047 ± 0.034 for the first, -0.07 ± 0.099 for the second.

E72D and E72G are within error of each other in abundance fitness: 0.047 ± 0.32 for the first, -0.096 ± 0.14 for the second.

E72A and E72S are within error of each other in abundance fitness: -0.022 ± 0.12 for the first, 0.034 ± 0.078 for the second.

In the case of Y61H, the abundance fitness is reported as -0.08 ± 0.4.
